Consider 52 variants from the Human Domainome abundance scans (Beltran et al. 2025).

± gives the uncertainty stated by the source.

B1: 3'-5' exoribonuclease 1, residues 65 to 114; numbered along this chain, Q8IV48 (parent)
chain: VYKEIAITNGCINRMSKEELRAKLSEFKLETRGVKDVLKKRLKNYYKKQK

This series covers variants of B1. Description: abundance fitness (aPCA) (normalised: wild type 0, dead -1); higher = more abundant; growth selection in yeast, the domain comes from the species named. As to conditions: Homo sapiens.
As for VYKDIAITNGCINRMSKEELRAKLSEFKLETRGVKDVLKKRLKNYYKKQK [E4D], the abundance fitness was determined as 0.003 ± 0.045.

For VYKGIAITNGCINRMSKEELRAKLSEFKLETRGVKDVLKKRLKNYYKKQK [E4G], the abundance fitness is -0.093 ± 0.036.

In the case of VYKLIAITNGCINRMSKEELRAKLSEFKLETRGVKDVLKKRLKNYYKKQK [E4L], the abundance fitness is -0.334 ± 0.041.

Turning to VYKHIAITNGCINRMSKEELRAKLSEFKLETRGVKDVLKKRLKNYYKKQK [E4H], the abundance fitness is -0.173 ± 0.053.

With VYKKIAITNGCINRMSKEELRAKLSEFKLETRGVKDVLKKRLKNYYKKQK [E4K], the abundance fitness was -0.251 ± 0.056.

On to VYKCIAITNGCINRMSKEELRAKLSEFKLETRGVKDVLKKRLKNYYKKQK [E4C], for which the abundance fitness is -0.161 ± 0.05.

VYKAIAITNGCINRMSKEELRAKLSEFKLETRGVKDVLKKRLKNYYKKQK [E4A]: the abundance fitness was -0.113 ± 0.038.

With VYKIIAITNGCINRMSKEELRAKLSEFKLETRGVKDVLKKRLKNYYKKQK [E4I], the abundance fitness was -0.287 ± 0.063.

For the variant VYKFIAITNGCINRMSKEELRAKLSEFKLETRGVKDVLKKRLKNYYKKQK [E4F], the abundance fitness was -0.214 ± 0.058.

For the variant YYKEIAITNGCINRMSKEELRAKLSEFKLETRGVKDVLKKRLKNYYKKQK [V1Y], the abundance fitness is -0.083 ± 0.12.

As to SYKEIAITNGCINRMSKEELRAKLSEFKLETRGVKDVLKKRLKNYYKKQK [V1S], the abundance fitness was -0.038 ± 0.079.

In the case of QYKEIAITNGCINRMSKEELRAKLSEFKLETRGVKDVLKKRLKNYYKKQK [V1Q], the abundance fitness is -0.369 ± 0.15.

With TYKEIAITNGCINRMSKEELRAKLSEFKLETRGVKDVLKKRLKNYYKKQK [V1T], the abundance fitness is -0.122 ± 0.12.

With RYKEIAITNGCINRMSKEELRAKLSEFKLETRGVKDVLKKRLKNYYKKQK [V1R], the abundance fitness was -0.37 ± 0.093.

Regarding NYKEIAITNGCINRMSKEELRAKLSEFKLETRGVKDVLKKRLKNYYKKQK [V1N], the abundance fitness came out at 0.093 ± 0.15.

On to WYKEIAITNGCINRMSKEELRAKLSEFKLETRGVKDVLKKRLKNYYKKQK [V1W], for which the abundance fitness is -0.102 ± 0.074.

For VEKEIAITNGCINRMSKEELRAKLSEFKLETRGVKDVLKKRLKNYYKKQK [Y2E], the abundance fitness was 0.048 ± 0.075.

As to VMKEIAITNGCINRMSKEELRAKLSEFKLETRGVKDVLKKRLKNYYKKQK [Y2M], the abundance fitness is 0.012 ± 0.065.

Turning to VKKEIAITNGCINRMSKEELRAKLSEFKLETRGVKDVLKKRLKNYYKKQK [Y2K], the abundance fitness was 0.041 ± 0.064.

Turning to VPKEIAITNGCINRMSKEELRAKLSEFKLETRGVKDVLKKRLKNYYKKQK [Y2P], the abundance fitness is 0.046 ± 0.061.

For the variant VGKEIAITNGCINRMSKEELRAKLSEFKLETRGVKDVLKKRLKNYYKKQK [Y2G], the abundance fitness turned out to be 0.069 ± 0.047.

For VFKEIAITNGCINRMSKEELRAKLSEFKLETRGVKDVLKKRLKNYYKKQK [Y2F], the abundance fitness was -0.053 ± 0.054.

VWKEIAITNGCINRMSKEELRAKLSEFKLETRGVKDVLKKRLKNYYKKQK [Y2W]: the abundance fitness is -0.069 ± 0.083.

For the variant VQKEIAITNGCINRMSKEELRAKLSEFKLETRGVKDVLKKRLKNYYKKQK [Y2Q], the abundance fitness was 0.076 ± 0.076.

Turning to VRKEIAITNGCINRMSKEELRAKLSEFKLETRGVKDVLKKRLKNYYKKQK [Y2R], the abundance fitness is -0.072 ± 0.045.

For the variant VHKEIAITNGCINRMSKEELRAKLSEFKLETRGVKDVLKKRLKNYYKKQK [Y2H], the abundance fitness is 0.01 ± 0.061.

VSKEIAITNGCINRMSKEELRAKLSEFKLETRGVKDVLKKRLKNYYKKQK [Y2S]: the abundance fitness came out at 0.028 ± 0.044.

On to VDKEIAITNGCINRMSKEELRAKLSEFKLETRGVKDVLKKRLKNYYKKQK [Y2D], for which the abundance fitness was 0.1 ± 0.07.

Turning to VLKEIAITNGCINRMSKEELRAKLSEFKLETRGVKDVLKKRLKNYYKKQK [Y2L], the abundance fitness was -0.052 ± 0.043.

On to VIKEIAITNGCINRMSKEELRAKLSEFKLETRGVKDVLKKRLKNYYKKQK [Y2I], for which the abundance fitness was 0.004 ± 0.052.

With VCKEIAITNGCINRMSKEELRAKLSEFKLETRGVKDVLKKRLKNYYKKQK [Y2C], the abundance fitness was determined as 0.013 ± 0.062.

Take VVKEIAITNGCINRMSKEELRAKLSEFKLETRGVKDVLKKRLKNYYKKQK [Y2V]: the abundance fitness is 0.021 ± 0.046.

In the case of VNKEIAITNGCINRMSKEELRAKLSEFKLETRGVKDVLKKRLKNYYKKQK [Y2N], the abundance fitness is 0.067 ± 0.062.

VAKEIAITNGCINRMSKEELRAKLSEFKLETRGVKDVLKKRLKNYYKKQK [Y2A]: the abundance fitness came to 0.006 ± 0.052.

For the variant VYVEIAITNGCINRMSKEELRAKLSEFKLETRGVKDVLKKRLKNYYKKQK [K3V], the abundance fitness is -0.294 ± 0.044.

For the variant VYFEIAITNGCINRMSKEELRAKLSEFKLETRGVKDVLKKRLKNYYKKQK [K3F], the abundance fitness is -0.34 ± 0.061.

For VYWEIAITNGCINRMSKEELRAKLSEFKLETRGVKDVLKKRLKNYYKKQK [K3W], the abundance fitness is -0.509 ± 0.052.

In the case of VYMEIAITNGCINRMSKEELRAKLSEFKLETRGVKDVLKKRLKNYYKKQK [K3M], the abundance fitness was -0.287 ± 0.049.

In the case of VYYEIAITNGCINRMSKEELRAKLSEFKLETRGVKDVLKKRLKNYYKKQK [K3Y], the abundance fitness is -0.251 ± 0.08.

As to VYHEIAITNGCINRMSKEELRAKLSEFKLETRGVKDVLKKRLKNYYKKQK [K3H], the abundance fitness is -0.055 ± 0.064.

For VYREIAITNGCINRMSKEELRAKLSEFKLETRGVKDVLKKRLKNYYKKQK [K3R], the abundance fitness is -0.131 ± 0.035.

With VYIEIAITNGCINRMSKEELRAKLSEFKLETRGVKDVLKKRLKNYYKKQK [K3I], the abundance fitness is -0.336 ± 0.06.

For the variant VYNEIAITNGCINRMSKEELRAKLSEFKLETRGVKDVLKKRLKNYYKKQK [K3N], the abundance fitness came out at 0.058 ± 0.07.

Consider VYTEIAITNGCINRMSKEELRAKLSEFKLETRGVKDVLKKRLKNYYKKQK [K3T], for which the abundance fitness is -0.081 ± 0.046.

Regarding VYQEIAITNGCINRMSKEELRAKLSEFKLETRGVKDVLKKRLKNYYKKQK [K3Q], the abundance fitness is -0.035 ± 0.061.

As to VYDEIAITNGCINRMSKEELRAKLSEFKLETRGVKDVLKKRLKNYYKKQK [K3D], the abundance fitness is -0.192 ± 0.072.

In the case of VYGEIAITNGCINRMSKEELRAKLSEFKLETRGVKDVLKKRLKNYYKKQK [K3G], the abundance fitness was -0.05 ± 0.041.

Take VYEEIAITNGCINRMSKEELRAKLSEFKLETRGVKDVLKKRLKNYYKKQK [K3E]: the abundance fitness was determined as 0.012 ± 0.064.

As to VYAEIAITNGCINRMSKEELRAKLSEFKLETRGVKDVLKKRLKNYYKKQK [K3A], the abundance fitness is -0.089 ± 0.043.

For the variant VYLEIAITNGCINRMSKEELRAKLSEFKLETRGVKDVLKKRLKNYYKKQK [K3L], the abundance fitness was -0.331 ± 0.042.

As to VYSEIAITNGCINRMSKEELRAKLSEFKLETRGVKDVLKKRLKNYYKKQK [K3S], the abundance fitness is -0.06 ± 0.039.

On to VYCEIAITNGCINRMSKEELRAKLSEFKLETRGVKDVLKKRLKNYYKKQK [K3C], for which the abundance fitness is -0.145 ± 0.057.
